The values that follow come from paper PMC3902943.

One may read the Kd as the constant that tells how readily two partners part at equilibrium. Low readings indicate tighter binding, high ones weaker binding.

This data set concerns the target streptavidin (SA) (UniProt P22629 25-183). Nature of the data set: EMSA. (In general: A gel shift assay detects complexes by their altered migration in electrophoresis.)

Sequence of streptavidin (SA) (P22629 25-183): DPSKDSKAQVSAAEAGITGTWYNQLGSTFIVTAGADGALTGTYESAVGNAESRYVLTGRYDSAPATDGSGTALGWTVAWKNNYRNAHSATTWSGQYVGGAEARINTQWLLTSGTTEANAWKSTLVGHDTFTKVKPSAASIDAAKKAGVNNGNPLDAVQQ

B1: S1m aptamer (60 nt) (structured_RNA)
RNA: AUGCGGCCGCCGACCAGAAUCAUGCAAGUGCGUAAGAUAGUCGCGGGUCGGCGGCCGCAU
With B1, the dissociation constant (Kd) was determined as 29 nM.
Under ACCGACCAGAAUCAUGCAAGUGCGUAAGAUAGUCGCGGGCCGGG (structured_RNA) [S1 aptamer (44 nt)] stands 59 nM.
